Measurements: publication PMC11479938

Molecular target: SerRS (full-length human seryl-tRNA synthetase) (human) (UniProt P49591)
Sequence (P49591 whole entry): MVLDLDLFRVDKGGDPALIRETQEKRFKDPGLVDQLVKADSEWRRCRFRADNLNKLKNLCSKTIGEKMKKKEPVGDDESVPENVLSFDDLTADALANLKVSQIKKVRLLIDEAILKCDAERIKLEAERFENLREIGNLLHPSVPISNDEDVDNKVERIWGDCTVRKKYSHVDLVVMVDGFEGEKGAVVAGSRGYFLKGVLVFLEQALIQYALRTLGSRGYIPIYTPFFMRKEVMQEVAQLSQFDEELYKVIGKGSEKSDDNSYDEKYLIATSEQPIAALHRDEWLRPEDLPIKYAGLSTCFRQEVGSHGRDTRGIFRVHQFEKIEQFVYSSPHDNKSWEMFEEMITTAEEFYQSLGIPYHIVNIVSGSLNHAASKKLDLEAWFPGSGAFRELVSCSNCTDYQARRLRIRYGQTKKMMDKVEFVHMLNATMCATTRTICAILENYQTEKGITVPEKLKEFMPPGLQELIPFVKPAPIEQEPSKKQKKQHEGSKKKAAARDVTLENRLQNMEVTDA

In the case of “METTL6 (full-length human m^3C tRNA methyltransferase) (from UniProt Q8TCB7 1-284) (enzyme)”, the in vitro methyltransferase activity of METTL6 on tRNA^SerUGA after adding SerRS (^3H-SAM incorporation) was 1000 fold.
